Measured values: article PMC5757175
Each block holds one molecule with its values, some of them ahead of it.

Tests used:
[1] = target: myosin subfragment-1 (S1) from rabbit skeletal muscle (rabbit)
[2] = target: myosin subfragment-1 (S1) from rabbit skeletal muscle (rabbit); remark: listed apart in the source

apparent Kd of the inhibition of actin filament gliding velocity (myosin S1 fixed on nitrocellulose-coated coverslips, central domain titrated in the assay buffer; 2.2 uM halted gliding) [1]: 400 nM
Molecule: central domain of Mus musculus UNC-45B (domain or fragment)

apparent Kd of the inhibition of actin filament gliding velocity (myosin S1 fixed on nitrocellulose-coated coverslips, UNC-45B titrated in the assay buffer; 2.8 uM inhibited translocation completely) [2]: 200 nM
B1: full-length Mus musculus UNC-45B (natural protein)
chain: MAEAEAAQLKEEGNRHFQLQDYKAATKSYSQALKLTKDKALLATLYRNRAACGLKMESYAQAASDASRAIDINSADIKALYRRCQALEHLGKLDQAFKDVQRCATLEPRNQNFQETLRRLNTSIQEQLRVQFSTDSRVQTMFEILLNENSEADKREKAANNLIVLGREEAGAERIFQSNGVALLLQLMNTQRPELLLAAVRTLSGMCSGHRARATAILHAVRIDRICSLMALENEEMSLAVCNLLQAIIDSLSGEDKREHRGKEEALVLDTKKDLKQITSHLLDMLVSKKVSGQGRDQALNLLNKNVPRKDLSIHDNSRTIYVVDNGLRKILKVVGQVPDLPSCLPLTDNTRMLASILINKLYDDLRCDPERDHFRKICEEYITSKFDPQDMDKNVNAIQTVSGILQGPFDLGNQLLGMKGVMEMMVALCGSEREADQLVAVEALIHASTKLSRATFIITNGVTLLKQIYKTTKNEKIKIRTLVGLCKLGSAGGSDYGLRQFAEGSTEKLAKQCRKWLCNTAIDTRTRRWAVEGLAYLTLDADVKDDFVQDIPALQAMFELAKARTSDKTILYSVANTLVNCTNSYDVKEVVPELVQLAKFSKQHVPEEHPKDKKDFVDLRVKRLLKAGVISALACMVKADSAILTDQTKELLARVFLALCDNPKDRGTIVAQGGGKALIPLALEGTDVGKVKAAHGLAKIAAVSNPDIAFPGERVYEVVRPLVSLLDTQRDGLQNYEALLGLTNLSGRSDKLRQKIFKEKALPDIENYMFENHDQLRQAATECMCNMVLNKEVQERFLADGNDRLKLVVLLCGEDDHKLQNAAAGALAMLTAAHKKLCLKMTEVTTQWLEILQRLCLHDQLSVQHRGLVIAHNLLSADAELARKLVESELLEILTVVGKQEPDEKRAAVVQTARECLIKCMDYGFIKPVS
